Laboratory results from PMC9239255, “Switching off Bacterial Flagellar Biogenesis by YdiU-Mediated UMPylation of FlhDC”.

Target: T1, FlhDC (native, un-UMPylated) (Escherichia coli K-12 MG1655, UniProt P0A8S9;P0ABY7 1-116;1-192)
T1 sequence 1: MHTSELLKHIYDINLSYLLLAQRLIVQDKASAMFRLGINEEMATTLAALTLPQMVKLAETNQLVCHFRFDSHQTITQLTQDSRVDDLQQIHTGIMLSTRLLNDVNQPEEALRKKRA
T1 sequence 2: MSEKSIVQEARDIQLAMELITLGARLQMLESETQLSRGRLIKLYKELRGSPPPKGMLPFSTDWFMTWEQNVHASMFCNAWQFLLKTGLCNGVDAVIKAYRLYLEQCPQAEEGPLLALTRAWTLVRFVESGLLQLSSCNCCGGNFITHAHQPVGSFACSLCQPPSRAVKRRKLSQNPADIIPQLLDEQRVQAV
Test: EMSA; 10 nM DNA; shift at protein:DNA ratio greater than 1
Details: protein: recombinant; tags: none apparent (pET21b; reverse primer carries stop codon); chain copies: 4;2; label: 5'-FAM on strand 1 (Methods call both oligos FAM-flhB); blunt

B1: pflhB (flhB promoter) (dsDNA)
DNA 1: ATTAACGCCATAAACCCCGCCTTTTTTACCGCTTACTCTGCCTATTGGCGT
DNA 2: ACGCCAATAGGCAGAGTAAGCGGTAAAAAAGGCGGGGTTTATGGCGTTAAT
Does B1 bind?
Result: binds
